System: Medicago nfp mutants
Assay: Complementation assay (nodulation) by hairy root transformation
Assay type: in vivo
Conditions: 49 days after inoculation with S. meliloti strain 1021, FIG. 6A
Description: Complementation assay: Construct assembly, plant growth conditions, hairy root transformations, nodulation and ROS assays were generally conducted as described in Bozsoki et al. (2017) (Bozsoki Z, Cheng J, Feng F, Gysel K, Vinther M, Andersen KR, Oldroyd G, Blaise M, Radutoiu S, Stougaard J (2017) Receptor-mediated chitin perception in legume roots is functionally separable from Nod factor perception. Proc Natl Acad Sci 114: E8118-E8127). The tested transgenes were the mutated LysM receptors described in Example 5. In addition, NFP substitution variants replacing residues outside the hydrophobic patch in LysM2 (Q119F, K141E and T150H) or in LysM3 (T216F) were tested.

Molecule | nodules per plant (complementation)
Q119F: NFP substitution variant outside the hydrophobic patch in LysM2 (protein, UniProt Q0GXS4 28-595, looked up, variant Q119F) Serine/threonine …: QPLYISETNFTCPVDSPPSCETYVAYRAQSPNFLSLSNISDIFNLSPLRIAKASNIEAEDKKLIPDQLLLVPVTCGCTKNHSFANITYSIKFGDNFFILSITSYQNLTNYLEFKNFNPNLSPTLLPLDTKVSVPLFCKCPSKNQLNKGIKYLITYVWQDNDNVTLVSSKFGASQVEMLAENNHNFTASTNRSVLIPVTSLPKLDQPSSNGRKSSSQNLALIIGISLGSAFFILVLTLSLVYVYCLKMKRLNRSTSSSETADKLLSGVSGYVSKPTMYEIDAIMEGTTNLSDNCKIGESVYKANIDGRVLAVKKIKKDASEELKILQKVNHGNLVKLMGVSSDNDGNCFLVYEYAENGSLEEWLFSESSKTSNSVVSLTWSQRITIAMDVAIGLQYMHEHTYPRIIHRDITTSNILLGSNFKAKIANFGMARTSTNSMMPKIDVFAFGVVLIELLTGKKAMTTKENGEVVILWKDFWKIFDLEGNREERLRKWMDPKLESFYPIDNALSLASLAVNCTADKSLSRPTIAEIVLCLSLLNQPSSEPMLERSLTSGLDAEATHVVTSVIAR | did not affect nodulation
T216F: NFP substitution variant in LysM3 (protein, UniProt Q0GXS4 28-595, looked up, variant T216F) Serine/threonine …: QPLYISETNFTCPVDSPPSCETYVAYRAQSPNFLSLSNISDIFNLSPLRIAKASNIEAEDKKLIPDQLLLVPVTCGCTKNHSFANITYSIKQGDNFFILSITSYQNLTNYLEFKNFNPNLSPTLLPLDTKVSVPLFCKCPSKNQLNKGIKYLITYVWQDNDNVTLVSSKFGASQVEMLAENNHNFTASFNRSVLIPVTSLPKLDQPSSNGRKSSSQNLALIIGISLGSAFFILVLTLSLVYVYCLKMKRLNRSTSSSETADKLLSGVSGYVSKPTMYEIDAIMEGTTNLSDNCKIGESVYKANIDGRVLAVKKIKKDASEELKILQKVNHGNLVKLMGVSSDNDGNCFLVYEYAENGSLEEWLFSESSKTSNSVVSLTWSQRITIAMDVAIGLQYMHEHTYPRIIHRDITTSNILLGSNFKAKIANFGMARTSTNSMMPKIDVFAFGVVLIELLTGKKAMTTKENGEVVILWKDFWKIFDLEGNREERLRKWMDPKLESFYPIDNALSLASLAVNCTADKSLSRPTIAEIVLCLSLLNQPSSEPMLERSLTSGLDAEATHVVTSVIAR | did not affect nodulation
T150H: NFP substitution variant outside the hydrophobic patch in LysM2 (protein, UniProt Q0GXS4 28-595, looked up, variant T150H) Serine/threonine …: QPLYISETNFTCPVDSPPSCETYVAYRAQSPNFLSLSNISDIFNLSPLRIAKASNIEAEDKKLIPDQLLLVPVTCGCTKNHSFANITYSIKQGDNFFILSITSYQNLTNYLEFKNFNPNLSPHLLPLDTKVSVPLFCKCPSKNQLNKGIKYLITYVWQDNDNVTLVSSKFGASQVEMLAENNHNFTASTNRSVLIPVTSLPKLDQPSSNGRKSSSQNLALIIGISLGSAFFILVLTLSLVYVYCLKMKRLNRSTSSSETADKLLSGVSGYVSKPTMYEIDAIMEGTTNLSDNCKIGESVYKANIDGRVLAVKKIKKDASEELKILQKVNHGNLVKLMGVSSDNDGNCFLVYEYAENGSLEEWLFSESSKTSNSVVSLTWSQRITIAMDVAIGLQYMHEHTYPRIIHRDITTSNILLGSNFKAKIANFGMARTSTNSMMPKIDVFAFGVVLIELLTGKKAMTTKENGEVVILWKDFWKIFDLEGNREERLRKWMDPKLESFYPIDNALSLASLAVNCTADKSLSRPTIAEIVLCLSLLNQPSSEPMLERSLTSGLDAEATHVVTSVIAR | did not affect nodulation
K141E: NFP substitution variant outside the hydrophobic patch in LysM2 (protein, UniProt Q0GXS4 28-595, looked up, variant K141E) Serine/threonine …: QPLYISETNFTCPVDSPPSCETYVAYRAQSPNFLSLSNISDIFNLSPLRIAKASNIEAEDKKLIPDQLLLVPVTCGCTKNHSFANITYSIKQGDNFFILSITSYQNLTNYLEFENFNPNLSPTLLPLDTKVSVPLFCKCPSKNQLNKGIKYLITYVWQDNDNVTLVSSKFGASQVEMLAENNHNFTASTNRSVLIPVTSLPKLDQPSSNGRKSSSQNLALIIGISLGSAFFILVLTLSLVYVYCLKMKRLNRSTSSSETADKLLSGVSGYVSKPTMYEIDAIMEGTTNLSDNCKIGESVYKANIDGRVLAVKKIKKDASEELKILQKVNHGNLVKLMGVSSDNDGNCFLVYEYAENGSLEEWLFSESSKTSNSVVSLTWSQRITIAMDVAIGLQYMHEHTYPRIIHRDITTSNILLGSNFKAKIANFGMARTSTNSMMPKIDVFAFGVVLIELLTGKKAMTTKENGEVVILWKDFWKIFDLEGNREERLRKWMDPKLESFYPIDNALSLASLAVNCTADKSLSRPTIAEIVLCLSLLNQPSSEPMLERSLTSGLDAEATHVVTSVIAR | did not affect nodulation
wild type Nfp gene: wild type Medicago NFP LysM receptor transgene (SEQ ID NO: 1) (protein) MSAFFLPSSSHALFLVLMLFFLTNISAQPLYISETNFTCPVDSPPSCETYVAYRAQSPNFLSLSNISDIFNLSPLRIAKASNIEAEDKKLIPDQLLLVPVTCGCTKNHSFANITYSIKQGDNFFILSITSYQNLTNYLEFKNFNPNLSPTLLPLDTKVSVPLFCKCPSKNQLNKGIKYLITYVWQDNDNVTLVSSKFGASQVEMLAENNHNFTASTNRSVLIPVTSLPKLDQPSSNGRKSSSQNLALIIGISLGSAFFILVLTLSLVYVYCLKMKRLNRSTSSSETADKLLSGVSGYVSKPTMYEIDAIMEGTTNLSDNCKIGESVYKANIDGRVLAVKKIKKDASEELKILQKVNHGNLVKLMGVSSDNDGNCFLVYEYAENGSLEEWLFSESSKTSNSVVSLTWSQRITIAMDVAIGLQYMHEHTYPRIIHRDITTSNILLGSNFKAKIANFGMARTSTNSMMPKIDVFAFGVVLIELLTGKKAMTTKENGEVVILWKDFWKIFDLEGNREERLRKWMDPKLESFYPIDNALSLASLAVNCTADKSLSRPTIAEIVLCLSLLNQPSSEPMLERSLTSGLDAEATHVVTSVIAR | 5 nodules per plant
NFP L147D L154D: double-mutated NFP, leucine residues L147 and L154 replaced with aspartate (protein, UniProt Q0GXS4 28-246, looked up, variant L147D L154D, extracellular domain, double-mutated NFP, leucine residues L147 and L154 replaced with aspartate) extracellular domain: QPLYISETNFTCPVDSPPSCETYVAYRAQSPNFLSLSNISDIFNLSPLRIAKASNIEAEDKKLIPDQLLLVPVTCGCTKNHSFANITYSIKQGDNFFILSITSYQNLTNYLEFKNFNPNDSPTLLPDDTKVSVPLFCKCPSKNQLNKGIKYLITYVWQDNDNVTLVSSKFGASQVEMLAENNHNFTASTNRSVLIPVTSLPKLDQPSSNGRKSSSQNLA | did not develop any nodules

Same assay, conditions: S. medicae inoculation, 28 dpi, FIG. 6B

Molecule | complementation (nodulation)
NFP L147D L154D: double-mutated NFP, leucine residues L147 and L154 replaced with aspartate (protein, UniProt Q0GXS4 28-246, looked up, variant L147D L154D, extracellular domain, double-mutated NFP, leucine residues L147 and L154 replaced with aspartate) extracellular domain: QPLYISETNFTCPVDSPPSCETYVAYRAQSPNFLSLSNISDIFNLSPLRIAKASNIEAEDKKLIPDQLLLVPVTCGCTKNHSFANITYSIKQGDNFFILSITSYQNLTNYLEFKNFNPNDSPTLLPDDTKVSVPLFCKCPSKNQLNKGIKYLITYVWQDNDNVTLVSSKFGASQVEMLAENNHNFTASTNRSVLIPVTSLPKLDQPSSNGRKSSSQNLA | complements poorly
